Assay results from US20050043232A1.

T1: myostatin pro peptide (wild type)
T1 sequence: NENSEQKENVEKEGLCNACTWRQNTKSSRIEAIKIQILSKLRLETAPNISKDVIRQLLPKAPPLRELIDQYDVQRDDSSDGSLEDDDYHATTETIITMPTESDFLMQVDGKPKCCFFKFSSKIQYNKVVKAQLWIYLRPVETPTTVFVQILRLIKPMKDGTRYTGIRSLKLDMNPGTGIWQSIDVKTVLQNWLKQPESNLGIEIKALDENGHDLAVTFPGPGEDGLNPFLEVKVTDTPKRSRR

T2: myostatin pro peptide (wild type) (Homo sapiens (Human)) (UniProt O14793)
T2 sequence: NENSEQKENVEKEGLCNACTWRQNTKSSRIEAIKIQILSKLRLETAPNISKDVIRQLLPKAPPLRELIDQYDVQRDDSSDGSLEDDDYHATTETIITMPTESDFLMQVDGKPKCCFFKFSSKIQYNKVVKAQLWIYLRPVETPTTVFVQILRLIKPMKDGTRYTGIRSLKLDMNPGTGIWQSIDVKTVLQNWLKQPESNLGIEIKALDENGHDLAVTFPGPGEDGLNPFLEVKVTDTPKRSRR

T3: 40-mer D to A mutant peptide (SEQ ID NO:14)
T3 sequence: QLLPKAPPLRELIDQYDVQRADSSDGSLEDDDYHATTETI

T4: 40-mer wild type myostatin pro peptide peptide (SEQ ID NO:12)
T4 sequence: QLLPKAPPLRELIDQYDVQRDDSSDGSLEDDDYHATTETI

T5: 20-mer wild type myostatin pro peptide peptide (SEQ ID NO:18)
T5 sequence: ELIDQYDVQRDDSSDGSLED

T6: 30-mer R to Q mutant peptide (SEQ ID NO:16)
T6 sequence: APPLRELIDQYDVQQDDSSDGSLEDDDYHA

T7: 30-mer wild type myostatin pro peptide peptide (SEQ ID NO:15)
T7 sequence: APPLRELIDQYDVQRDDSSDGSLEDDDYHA

T8: 40-mer R to Q mutant peptide (SEQ ID NO:13)
T8 sequence: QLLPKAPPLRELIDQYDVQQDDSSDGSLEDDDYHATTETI

T9: 30-mer D to A mutant peptide (SEQ ID NO:17)
T9 sequence: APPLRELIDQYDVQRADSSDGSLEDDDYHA

T10: 20-mer R to Q mutant peptide (SEQ ID NO:19)
T10 sequence: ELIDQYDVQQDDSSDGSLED

T11: 20-mer D to A mutant peptide (SEQ ID NO:20)
T11 sequence: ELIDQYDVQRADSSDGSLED


Legend:
[1] = system: T1, myostatin pro peptide (wild type)
[2] = molecular target: T2, myostatin pro peptide (wild type) (Homo sapiens (Human)); assay: cell-based or functional assay
[3] = system: T3, 40-mer D to A mutant peptide (SEQ ID NO:14)
[4] = system: T4, 40-mer wild type myostatin pro peptide peptide (SEQ ID NO:12)
[5] = system: T5, 20-mer wild type myostatin pro peptide peptide (SEQ ID NO:18)
[6] = system: T6, 30-mer R to Q mutant peptide (SEQ ID NO:16)
[7] = system: T7, 30-mer wild type myostatin pro peptide peptide (SEQ ID NO:15)
[8] = system: T8, 40-mer R to Q mutant peptide (SEQ ID NO:13)
[9] = system: T9, 30-mer D to A mutant peptide (SEQ ID NO:17)
[10] = system: T10, 20-mer R to Q mutant peptide (SEQ ID NO:19)
[11] = system: T11, 20-mer D to A mutant peptide (SEQ ID NO:20)

Row | Molecule | partial proteolytic cleavage of pro peptide in the latent complex, western blot (FIG. 3E; 1 µg complex, 250 ng proteinase, 16 hours 37° C.) [1] | proteolytic cleavage of free pro peptide (purified away from the C-terminal dimer) [1] | proteolytic cleavage of pro peptide, SDS-PAGE and western blot (500 ng substrate, 100 ng protease, overnight 37° C.; free pro peptide and latent complex) [1] | fraction of proteolytically-cleaved myostatin complex active in the luciferase reporter assay (against a standard curve of C-terminal dimer) [2] | proteolytic cleavage of pro peptide in the purified latent complex, SDS-PAGE and western blot (FIG. 3D) [1] | cleavage of synthetic peptide by conditioned medium containing TLL-2, C18 HPLC and mass spectrometry [3] | cleavage of synthetic peptide by conditioned medium containing TLL-2, C18 HPLC and mass spectrometry [4] | cleavage of synthetic peptide by conditioned medium containing TLL-2, C18 HPLC and mass spectrometry [5] | cleavage of synthetic peptide by conditioned medium containing TLL-2, C18 HPLC and mass spectrometry [6] | cleavage of synthetic peptide by conditioned medium containing TLL-2, C18 HPLC and mass spectrometry [7] | cleavage of synthetic peptide by conditioned medium containing TLL-2, C18 HPLC and mass spectrometry [8] | cleavage of synthetic peptide by conditioned medium containing TLL-2, C18 HPLC and mass spectrometry [9] | cleavage of synthetic peptide by conditioned medium containing TLL-2, C18 HPLC and mass spectrometry [10] | cleavage of synthetic peptide by conditioned medium containing TLL-2, C18 HPLC and mass spectrometry [11]
1 | mammalian Tolloid (mTLD) | mTLD was consistently less active than the other three | All four of these proteinases also cleaved pro peptide that had been purified away from the C-terminal dimer | each of the proteases cleaved the pro peptide whether it was in a purified form or in a complex with the myostatin C-terminal dimer | – | – | – | – | – | – | – | – | – | – | –
2 | mammalian Tolloid-like-1 (mTLL-1) (enzyme, UniProt Q62381 148-1013, looked up, species assumed) Tolloid-like protein 1: AATSRTERIWPGGVIPYVIGGNFTGSQRAMFKQAMRHWEKHTCVTFTERSDEESYIVFTYRPCGCCSYVGRRGNGPQAISIGKNCDKFGIVVHELGHVIGFWHEHTRPDRDNHVTIIRENIQPGQEYNFLKMEPGEVNSLGERYDFDSIMHYARNTFSRGMFLDTILPSRDDNGIRPAIGQRTRLSKGDIAQARKLYRCPACGETLQESSGNLSSPGFPNGYPSYTHCIWRVSVTPGEKIVLNFTTMDLYKSSLCWYDYIEVRDGYWRKSPLLGRFCGDKVAGVLTSTDSRMWIEFRSSSNWVGKGFAAVYEAICGGEIRKNEGQIQSPNYPDDYRPMKECVWKIMVSEGYHVGLTFQAFEIERHDSCAYDHLEVRDGASENSPLIGRFCGYDKPEDIRSTSNTLWMKFVSDGTVNKAGFAANFFKEEDECAKPDRGGCEQRCLNTLGSYQCACEPGYELGPDRRSCEAACGGLLTKLNGTITTPGWPKEYPPNKNCVWQVIAPSQYRISVKFEFFELEGNEVCKYDYVEIWSGPSSESKLHGKFCGADIPEVMTSHFNNMRIEFKSDNTVSKKGFKAHFFSDKDECSKDNGGCQHECVNTMGSYTCQCRNGFVLHENKHDCKEAECEQKIHSPSGLITSPNWPDKYPSRKECTWVISAIPGHRITLAFNEFEVEQHQECAYDHLEIFDGETEKSPILGRLCGSKIPDPLMATGNEMFIRFISDASVQRKGFQATHSTECGGRLKAESKPRDLYSHAQFGDNNYPGQLDCEWLLVSERGSRLELSFQTFEVEEEADCGYDYVEVFDGLSSKAVGLGRFCGSGPPEEIYSIGDVALIHFHTDDTINKKGFYIRYKSIRYPETMHAKN | Three of the proteinases, BMP-1, mTLL-1, and mTLL-2, were approximately equally effective in cleaving the pro peptide | All four of these proteinases also cleaved pro peptide that had been purified away from the C-terminal dimer | each of the proteases cleaved the pro peptide whether it was in a purified form or in a complex with the myostatin C-terminal dimer | > 50% | – | – | – | – | – | – | – | – | – | –
3 | bone morphogenic protein-1 (BMP-1) (enzyme, UniProt P13497 121-986, looked up, species assumed) Bone morphogenetic protein 1: AATSRPERVWPDGVIPFVIGGNFTGSQRAVFRQAMRHWEKHTCVTFLERTDEDSYIVFTYRPCGCCSYVGRRGGGPQAISIGKNCDKFGIVVHELGHVVGFWHEHTRPDRDRHVSIVRENIQPGQEYNFLKMEPQEVESLGETYDFDSIMHYARNTFSRGIFLDTIVPKYEVNGVKPPIGQRTRLSKGDIAQARKLYKCPACGETLQDSTGNFSSPEYPNGYSAHMHCVWRISVTPGEKIILNFTSLDLYRSRLCWYDYVEVRDGFWRKAPLRGRFCGSKLPEPIVSTDSRLWVEFRSSSNWVGKGFFAVYEAICGGDVKKDYGHIQSPNYPDDYRPSKVCIWRIQVSEGFHVGLTFQSFEIERHDSCAYDYLEVRDGHSESSTLIGRYCGYEKPDDIKSTSSRLWLKFVSDGSINKAGFAVNFFKEVDECSRPNRGGCEQRCLNTLGSYKCSCDPGYELAPDKRRCEAACGGFLTKLNGSITSPGWPKEYPPNKNCIWQLVAPTQYRISLQFDFFETEGNDVCKYDFVEVRSGLTADSKLHGKFCGSEKPEVITSQYNNMRVEFKSDNTVSKKGFKAHFFSDKDECSKDNGGCQQDCVNTFGSYECQCRSGFVLHDNKHDCKEAGCDHKVTSTSGTITSPNWPDKYPSKKECTWAISSTPGHRVKLTFMEMDIESQPECAYDHLEVFDGRDAKAPVLGRFCGSKKPEPVLATGSRMFLRFYSDNSVQRKGFQASHATECGGQVRADVKTKDLYSHAQFGDNNYPGGVDCEWVIVAEEGYGVELVFQTFEVEEETDCGYDYMELFDGYDSTAPRLGRYCGSGPPEEVYSAGDSVLVKFHSDDTITKKGFHLRYTSTKFQDTLHSRK | Three of the proteinases, BMP-1, mTLL-1, and mTLL-2, were approximately equally effective in cleaving the pro peptide | All four of these proteinases also cleaved pro peptide that had been purified away from the C-terminal dimer | each of the proteases cleaved the pro peptide whether it was in a purified form or in a complex with the myostatin C-terminal dimer | – | incubation of the purified latent complex with purified BMP-1 resulted in complete cleavage of the pro peptide to generate a single product | – | – | – | – | – | – | – | – | –
4 | mammalian Tolloid-like-2 (mTLL-2) (enzyme, UniProt Q9WVM6 147-1012, looked up, species assumed) Tolloid-like protein 2: ATTSRTERIWPGGVIPYVIGGNFTGTQRAIFKQAMRHWEKHTCVTFVERTDEESFIVFSYRTCGCCSYVGRRGGGPQAISIGKNCDKFGIVAHELGHVVGFWHEHTRPDRDQHVTIIRENIQPGQEYNFLKMEAGEVSSLGETYDFDSIMHYARNTFSRGVFLDTILPRRDDNGVRPTIGQRVRLSQGDIAQARKLYKCPACGETLQDTTGNFSAPGFPNGYPSYSHCVWRISVTPGEKIILNFTSMDLFKSRLCWYDYVEIRDGYWRKAPLLGRFCGDKIPESLVSSDSRLWVEFRSSSSSLGKGFFAVYEAMCGGDITKDAGQIQSPNYPDDYRPSKECVWRITVPDGFHVGLTFQSFEIERHDSCAYDYLEIRDGPTEDSTLIGHFCGYEKPEAVKSSANRLWVKFVSDGSINKAGFAANFFKEVDECSWPDHGGCEQRCVNTLGSYTCACDPGYELAADKKTCEVACGGFITKLNGTITSPGWPKEYPTNKNCVWQVVAPVQYRISLQFEAFELEGNDVCKYDFVEVRSGLSPDAKLHGKFCGSETPEVITSQSNNMRVEFKSDNTVSKRGFRAHFFSDKDECAKDNGGCQQECVNTFGSYLCRCRNGYRLHENGHDCKEAGCAYKISSAEGTLMSPNWPDKYPSRKECTWNISSTAGHRVKITFSEFEIEQHQECAYDHLELYDGTDSLAPILGRFCGSKKPDPVVATGSSLFLRFYSDASVQRKGFQAVHSTECGGRLKAEVQTKELYSHAQFGDNNYPSQARCDWVIVAEDGYGVELIFRTFEVEEEADCGYDFMEAYDGYDSSAPRLGRFCGSGPLEEIYSAGDSLMIRFHTDDTINKKGFHARYTSTKFQDALHMRK | Three of the proteinases, BMP-1, mTLL-1, and mTLL-2, were approximately equally effective in cleaving the pro peptide | All four of these proteinases also cleaved pro peptide that had been purified away from the C-terminal dimer | each of the proteases cleaved the pro peptide whether it was in a purified form or in a complex with the myostatin C-terminal dimer | – | – | the peptides containing the D→A mutation at the P1′ position were not cleaved | The 40-mer, 30-mer, and 20-mer wild type and R→Q mutant peptides were cleaved by conditioned media containing TLL-2 | The 40-mer, 30-mer, and 20-mer wild type and R→Q mutant peptides were cleaved by conditioned media containing TLL-2 | The 40-mer, 30-mer, and 20-mer wild type and R→Q mutant peptides were cleaved by conditioned media containing TLL-2 | The 40-mer, 30-mer, and 20-mer wild type and R→Q mutant peptides were cleaved by conditioned media containing TLL-2 | The 40-mer, 30-mer, and 20-mer wild type and R→Q mutant peptides were cleaved by conditioned media containing TLL-2 | the peptides containing the D→A mutation at the P1′ position were not cleaved | The 40-mer, 30-mer, and 20-mer wild type and R→Q mutant peptides were cleaved by conditioned media containing TLL-2 | the peptides containing the D→A mutation at the P1′ position were not cleaved
